What is called Kd is a measure of binding affinity in units of concentration.

The values below come from article doi:10.1101/2022.12.22.521671 (bioRxiv, 2022).

Holding throughout (test): BLI
A general note: BLI is a label-free optical method that tracks binding on a fibre tip over time.

In experiment [1] the target is biotinylated IQN17 (HIV-1 HXB2) (UniProt P04578).
Experiment [2] addresses biotinylated IQN22 (HIV-1 HXB2) (UniProt P04578).
The target of a further experiment is T1, biotinylated IQN17 (HIV-1 HXB2 gp41 565-581 fused to …, chimera, not fully specified; biotin (position not given)).
T1 chain: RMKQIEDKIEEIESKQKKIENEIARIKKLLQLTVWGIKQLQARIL

The next experiment concerns the target T2, biotinylated IQN22 (HIV-1 HXB2 gp41 565-586 fused to …, chimera, not fully specified; biotin (position not given)).
T2 chain: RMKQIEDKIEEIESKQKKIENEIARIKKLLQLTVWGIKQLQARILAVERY

As to PIE12 (peptide), the results for the Kd in experiment [1] and in experiment [2] were 3 nM and 2 nM, respectively.

B1: D5 Fab (Fab, V domains shown)
VH: QVQLVQSGAEVRKPGASVKVSCKASGDTFSSYAISWVRQAPGQGLEWMGGIIPIFGTANYAQAFQGRVTITANESTSTAYMELSSLRSEDTAIYYCARDNPTLLGSDYWGAGTLVTVSS
VL: DIQMTQSPSTLSASIGDRVTITCRASEGIYHWLAWYQQKPGKAPKLLIYKASSLASGAPSRFSGSGSGTDFTLTISSLQPDDFATYYCQQYSNYPLTFGGGTKLEIK
B1: the Kd with biotinylated IQN17 stood at 14 nM; with biotinylated IQN22, 5 nM.
